Legend:
[1] = molecular target: fibrillin-1 cbEGF22-TB4 domain pair (residues 1486–1605) (human) (UniProt P35555); test: SPR
[2] = molecular target: fibrillin-1 TB4-cbEGF23 domain pair (residues 1527–1647) (human) (UniProt P35555); test: SPR

- fold difference in Ka against TB4-cbEGF23 [1]: 2 fold
- koff [2]: 0.0016 s⁻¹
Substance: native αVβ3 integrin purified from human placental extract (from UniProt P05106 27-788) (receptor)

— article PMC5582136
